The values that follow come from patent US20260242735A1 (UNIVERSIT T BASEL, published 2026).

One assay deals with human CD33 F44E (human, UniProt P20138 18-364). Description: flow cytometry on transfected cells, IgG. On the technique in general: Flow cytometry measures light scatter and fluorescence of single cells or particles in a stream.
A further assay deals with human CD33 I47V (human, UniProt P20138 18-364). The assay is described as follows: flow cytometry on transfected cells, IgG.
The target of another assay is human CD33 I47W (human, UniProt P20138 18-364). The assay is described as follows: flow cytometry on transfected cells, IgG.
Sequence of human CD33 I47W (P20138 18-364 I47W limits assumed): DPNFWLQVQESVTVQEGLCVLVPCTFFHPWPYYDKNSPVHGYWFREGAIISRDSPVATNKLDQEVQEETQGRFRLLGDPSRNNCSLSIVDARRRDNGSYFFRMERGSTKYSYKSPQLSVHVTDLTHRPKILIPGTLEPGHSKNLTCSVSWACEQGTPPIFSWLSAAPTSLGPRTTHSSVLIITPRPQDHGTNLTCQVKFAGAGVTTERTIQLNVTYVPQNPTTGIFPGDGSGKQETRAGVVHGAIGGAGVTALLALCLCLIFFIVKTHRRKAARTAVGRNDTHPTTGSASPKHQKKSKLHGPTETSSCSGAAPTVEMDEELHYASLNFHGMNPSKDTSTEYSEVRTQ
Assay [1] deals with human CD33 P48I (human, UniProt P20138 18-364). Description: flow cytometry on transfected cells, IgG.
Target sequence in this assay (P20138 18-364 P48I limits assumed): as the sequence (P20138 18-364 I47W limits assumed) above, with W30I, P31I counted along it
Description: (§1) An alanine scan on human CD33 was performed to the determine the residues on CD33 that are involved in binding to the antibodies investigated. […] Briefly, a mutation library of CD33 was created by high-throughput, site-directed mutagenesis. Each residue was individually mutated to alanine, with alanine codons mutated to serine. The mutant library was arrayed in 384-well microplates and transiently transfected into HEK293-T. Following transfection, cells were incubated with the indicated antibodies (IgG or Fab) at concentrations pre-determined using an independent immunofluorescence titration curve on wild type CD33. […] Binding of each antibody to each mutant clone was determined in duplicates. For each point, background fluorescence was subtracted from the raw data, which were then normalized to antibody reactivity with wild type CD33.
(§2) Antibodies were screened for binding to the human CD33 variants in IgG format. […] For each mutation, background fluorescence was subtracted from the raw data, which were then normalized to antibody reactivity with wild-type CD33.
The next assay addresses human CD33 Y49L (human, UniProt P20138 18-364). Description: flow cytometry on transfected cells, IgG.
A further assay concerns the target human CD33 Y49S (human, UniProt P20138 18-364). Description: flow cytometry on transfected cells, IgG.
The next assay has as its target human CD33 P48W (human, UniProt P20138 18-364). Description: flow cytometry on transfected cells, IgG.
For a further assay, the target named is human CD33 F44H (human, UniProt P20138 18-364). Description: flow cytometry on transfected cells, IgG.
Sequence of human CD33 F44H (P20138 18-364 F44H limits assumed): as the sequence (P20138 18-364 I47W limits assumed) above, with F27H, W30I counted along it
A further assay has as its target human CD33 T42K (human, UniProt P20138 18-364). Description: flow cytometry on transfected cells, IgG.
Another assay concerns the target human CD33 Y50H (human, UniProt P20138 18-364). Description: flow cytometry on transfected cells, IgG.
The next assay concerns the target human CD33 F44D (human, UniProt P20138 18-364). The assay is described as follows: flow cytometry on transfected cells, IgG.
The target of the next assay is human CD33 T42P (human, UniProt P20138 18-364). Description: flow cytometry on transfected cells, IgG.
Sequence of human CD33 T42P (P20138 18-364 T42P limits assumed): as the sequence (P20138 18-364 I47W limits assumed) above, with T25P, W30I counted along it
In assay [2] the target is human CD33 Y50R (human, UniProt P20138 18-364). The assay is described as follows: flow cytometry on transfected cells, IgG.
Target sequence in this assay (P20138 18-364 Y50R limits assumed): as the sequence (P20138 18-364 I47W limits assumed) above, with W30I, Y33R counted along it
Description: as §1, §2
A further assay concerns the target human CD33 I47G (human, UniProt P20138 18-364). Description: flow cytometry on transfected cells, IgG.
In the next assay the target is human CD33 W22Q (human, UniProt P20138 18-364). Description: flow cytometry, transfected cells.
The next assay concerns the target human CD33 S131W (human, UniProt P20138 18-364). The assay is described as follows: flow cytometry, transfected cells.
The target in the next assay is human CD33 P132L (human, UniProt P20138 18-364). The assay is described as follows: flow cytometry, transfected cells.
A further assay deals with human CD33 P132N (human, UniProt P20138 18-364). The assay is described as follows: flow cytometry, transfected cells.
A further assay addresses human CD33 P132Q (human, UniProt P20138 18-364). The assay is described as follows: flow cytometry, transfected cells.
In another assay the target is T1, human CD33 Y129A (human, UniProt P20138 18-364).
T1 construct: alanine scan clone, transfected HEK293-T
Description: alanine scan, flow cytometry, HEK293-T.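 Further: antibody binding to each alanine-substituted CD33 mutant expressed transiently in HEK293-T, read as fluorescence minus background, mean of duplicates, relative to wild-type CD33 set as 100%.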

The next assay deals with T2, human CD33 L134A (human, UniProt P20138 18-364).
T2 construct: alanine scan clone, transfected HEK293-T
Description: alanine scan, flow cytometry, HEK293-T.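 Further: antibody binding to each alanine-substituted CD33 mutant expressed transiently in HEK293-T, read as fluorescence minus background, mean of duplicates, relative to wild-type CD33 set as 100%.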

The target of a further assay is human CD33 K52T (human, UniProt P20138 18-364). Description: flow cytometry, transfected cells.
A further assay concerns the target human CD33 K52Y (human, UniProt P20138 18-364). The assay is described as follows: flow cytometry, transfected cells.
The target in assay [3] is human CD33 P48I (human, UniProt P20138 18-364). The assay is described as follows: flow cytometry, transfected cells.
Target sequence in this assay (P20138 18-364 P48I limits assumed): as the sequence (P20138 18-364 I47W limits assumed) above, with W30I, P31I counted along it
In a further assay the target is human CD33 Y49R (human, UniProt P20138 18-364). The assay is described as follows: flow cytometry, transfected cells.
The target in a further assay is human CD33 Y49I (human, UniProt P20138 18-364). The assay is described as follows: flow cytometry, transfected cells.
The next assay addresses human CD33 D51K (human, UniProt P20138 18-364). The assay is described as follows: flow cytometry, transfected cells.
The next assay addresses human CD33 Y49T (human, UniProt P20138 18-364). The assay is described as follows: flow cytometry, transfected cells.
Another assay has as its target human CD33 P48S (human, UniProt P20138 18-364). The assay is described as follows: flow cytometry, transfected cells.
The next assay deals with human CD33 P48K (human, UniProt P20138 18-364). Description: flow cytometry, transfected cells.
In assay [4] the target is human CD33 Y50R (human, UniProt P20138 18-364). Description: flow cytometry, transfected cells.
Target sequence in this assay (P20138 18-364 Y50R limits assumed): as the sequence (P20138 18-364 I47W limits assumed) above, with W30I, Y33R counted along it
A further assay deals with human CD33 N20L (human, UniProt P20138 18-364). Description: flow cytometry, transfected cells.
Another assay has as its target human CD33 P46L (human, UniProt P20138 18-364). Description: flow cytometry, transfected cells.
Another assay concerns the target human CD33 Y129S (human, UniProt P20138 18-364). The assay is described as follows: flow cytometry, transfected cells.
A further assay concerns the target human CD33 F21H (human, UniProt P20138 18-364). Description: flow cytometry, transfected cells.
A further assay addresses human CD33 P46I (human, UniProt P20138 18-364). Description: flow cytometry, transfected cells.
The target in another assay is human CD33 Q24H (human, UniProt P20138 18-364). The assay is described as follows: flow cytometry, transfected cells.
The next assay deals with human CD33 P46S (human, UniProt P20138 18-364). The assay is described as follows: flow cytometry, transfected cells.
Another assay deals with human CD33 F44P (human, UniProt P20138 18-364). The assay is described as follows: flow cytometry, transfected cells.

Sequence of human CD33 Y49S (P20138 18-364 Y49S limits assumed): as the sequence (P20138 18-364 I47W limits assumed) above, with W30I, Y32S counted along it
Sequence of human CD33 F44E (P20138 18-364 F44E limits assumed): as the sequence (P20138 18-364 I47W limits assumed) above, with F27E, W30I counted along it
Sequence of human CD33 Y49L (P20138 18-364 Y49L limits assumed): as the sequence (P20138 18-364 I47W limits assumed) above, with W30I, Y32L counted along it
Sequence of human CD33 I47V (P20138 18-364 I47V limits assumed): as the sequence (P20138 18-364 I47W limits assumed) above, with W30V counted along it
Sequence of human CD33 Y50H (P20138 18-364 Y50H limits assumed): as the sequence (P20138 18-364 I47W limits assumed) above, with W30I, Y33H counted along it
Sequence of human CD33 F44D (P20138 18-364 F44D limits assumed): as the sequence (P20138 18-364 I47W limits assumed) above, with F27D, W30I counted along it
Sequence of human CD33 I47G (P20138 18-364 I47G limits assumed): as the sequence (P20138 18-364 I47W limits assumed) above, with W30G counted along it
Sequence of human CD33 P48W (P20138 18-364 P48W limits assumed): as the sequence (P20138 18-364 I47W limits assumed) above, with W30I, P31W counted along it
Description for human CD33 F44D: as §1, §2
Description for human CD33 F44E: as §1, §2
Description for human CD33 F44H: as §1, §2
Description for human CD33 I47G: as §1, §2
Description for human CD33 I47V: as §1, §2
Description for human CD33 I47W: as §1, §2
Description for human CD33 P48W: as §1, §2
Description for human CD33 T42K: as §1, §2
Description for human CD33 T42P: as §1, §2
Description for human CD33 Y49L: as §1, §2
Description for human CD33 Y49S: as §1, §2
Description for human CD33 Y50H: as §1, §2

B1: Refmab #6 (antibody, human IgG1, V domains shown)
VH: QVQLQQPGAEVVKPGASVKMSCKASGYTFTSYYIHWIKQTPGQGLEWVGVIYPGNDDISYNQKFQGKATLTADKSSTTAYMQLSSLTSEDSAVYYCAREVRLRYFDVWGQGTTVTVSS
VL: EIVLTQSPGSLAVSPGERVTMSCKSSQSVFFSSSQKNYLAWYQQIPGQSPRLLIYWASTRESGVPDRFTGSGSGTDFTLTISSVQPEDLAIYYCHQYLSSRTFGQGTKLEIK
B1: the “Mean % WT Binding” value worked out at 102 % WT binding with human CD33 F44E; 101 % WT binding with human CD33 I47V; 114 % WT binding in the assay with human CD33 I47W; 102 % WT binding in the assay with human CD33 P48I [1]; 97.9 % WT binding with human CD33 Y49L; 102 % WT binding in the assay with human CD33 Y49S. Besides, the “Mean % WT Binding” value in the assay with human CD33 P48W stood at 87.2 % WT binding; with human CD33 F44H it was 91.3 % WT binding; with human CD33 T42K, 91.2 % WT binding; in the assay with human CD33 Y50H it was 92.2 % WT binding; with human CD33 F44D, 107 % WT binding; in the assay with human CD33 T42P, 9.3 % WT binding. The “Mean % WT Binding” value in the assay with human CD33 Y50R [2] is 96.9 % WT binding; with human CD33 I47G, 105 % WT binding.

B2: Refmab #6 (antibody, human IgG1, V domains shown)
VH: QVQLQQPGAEVVKPGASVKMSCKASGYTFTSYYIHWIKQTPGQGLEWVGVIYPGNDDISYNQKFQGKATLTADKSSTTAYMQLSSLTSEDSAVYYCAREVRLRYFDVWGQGTTVTVSS
VL: EIVLTQSPGSLAVSPGERVTMSCKSSQSVFFSSSQKNYLAWYQQIPGQSPRLLIYWASTRESGVPDRFTGSGSGTDFTLTISSVQPEDLAIYYCHQYLSSRTFGQGTKLEIK
Take B2: the binding result in the assay with human CD33 W22Q, with human CD33 S131W, in the assay with human CD33 P132L, with human CD33 P132N and with human CD33 P132Q was “no binding (tested: below 20%)” each time.

B3: Refmab #5 (antibody, V domains shown)
VH: QVQLVQSGAEVKKPGASVKVSCKASGYTFTNYDINWVRQAPGQGLEWIGWIYPGDGSTKYNEKFKAKATLTADTSTSTAYMELRSLRSDDTAVYYCASGYEDAMDYWGQGTTVTVSS
VL: DIQMTQSPSSLSASVGDRVTINCKASQDINSYLSWFQQKPGKAPKTLIYRANRLVDGVPSRFSGSGSGQDYTLTISSLQPEDFATYYCLQYDEFPLTFGGGTKVEIK
notes: The alanine scan used IgG or Fab
Consider B3, for which the figures for the “Mean % WT Binding” value with human CD33 Y129A and in the assay with human CD33 L134A were 196 % WT binding and 95.9 % WT binding, respectively.

B4: Refmab #5 (antibody, human IgG1, V domains shown)
VH: QVQLVQSGAEVKKPGASVKVSCKASGYTFTNYDINWVRQAPGQGLEWIGWIYPGDGSTKYNEKFKAKATLTADTSTSTAYMELRSLRSDDTAVYYCASGYEDAMDYWGQGTTVTVSS
VL: DIQMTQSPSSLSASVGDRVTINCKASQDINSYLSWFQQKPGKAPKTLIYRANRLVDGVPSRFSGSGSGQDYTLTISSLQPEDFATYYCLQYDEFPLTFGGGTKVEIK
With B4, the “Mean % WT Binding” value with human CD33 F44E is 97 % WT binding; with human CD33 I47V, 104 % WT binding; in the assay with human CD33 I47W it was 90.8 % WT binding; with human CD33 P48I [1], 4 % WT binding; in the assay with human CD33 Y49L it was 0.8 % WT binding; with human CD33 Y49S, 0.5 % WT binding. In addition, the “Mean % WT Binding” value with human CD33 P48W came to 2.2 % WT binding; with human CD33 F44H, 117 % WT binding; with human CD33 T42K, 79.5 % WT binding; with human CD33 Y50H, 7.1 % WT binding; with human CD33 F44D it was 111 % WT binding; with human CD33 T42P, 13.9 % WT binding. Moreover, the “Mean % WT Binding” value came out at 47 % WT binding in the assay with human CD33 Y50R [2] and 80.9 % WT binding in the assay with human CD33 I47G.

B5: Refmab #5 (antibody, human IgG1, V domains shown)
VH: QVQLVQSGAEVKKPGASVKVSCKASGYTFTNYDINWVRQAPGQGLEWIGWIYPGDGSTKYNEKFKAKATLTADTSTSTAYMELRSLRSDDTAVYYCASGYEDAMDYWGQGTTVTVSS
VL: DIQMTQSPSSLSASVGDRVTINCKASQDINSYLSWFQQKPGKAPKTLIYRANRLVDGVPSRFSGSGSGQDYTLTISSLQPEDFATYYCLQYDEFPLTFGGGTKVEIK
Take B5: the binding result with human CD33 K52T, in the assay with human CD33 K52Y, with human CD33 P48I [3], with human CD33 Y49R, with human CD33 Y49I and with human CD33 D51K was “no binding (tested: below 20%)” in each case.

B6: Refmab #4 (antibody, human IgG1, V domains shown)
VH: QVQLVQSGAEVKKPGESVKVSCKASGYTFTNYGMNWVKQAPGQGLEWMGWINTYTGEPTYADKFQGRVTMTTDTSTSTAYMEIRNLGGDDTAVYYCARWSWSDGYYVYFDYWGQGTSVTVSS
VL: DIVMTQSPDSLTVSLGERTTINCKSSQSVLDSSTNKNSLAWYQQKPGQPPKLLLSWASTRESGIPDRFSGSGSGTDFTLTIDSPQPEDSATYYCQQSAHFPITFGQGTRLEIK
For B6, the binding result with human CD33 Y49T, with human CD33 P48S, with human CD33 P48K and with human CD33 Y50R [4] was “no binding (tested: below 20%)” throughout.

B7: Refmab #3 (antibody, human IgG1, V domains shown)
VH: QVQLVQSGAEVKKPGSSVKVSCKASGYTFTDYNMHWVRQAPGQGLEWIGYIYPYNGGTGYNQKFKSKATITADESTNTAYMELSSLRSEDTAVYYCARGRPAMDYWGQGTLVTVSS
VL: DIQMTQSPSSLSASVGDRVTITCRASESVDNYGISFMNWFQQKPGKAPKLLIYAASNQGSGVPSRFSGSGSGTDFTLTISSLQPDDFATYYCQQSKEVPWTFGQGTKVEIK
Take B7: the binding result in the assay with human CD33 N20L, with human CD33 P46L, with human CD33 Y129S, in the assay with human CD33 F21H, with human CD33 P46I and with human CD33 Q24H was “no binding (tested: below 20%)” each time. Further, the binding result with human CD33 P46S and with human CD33 F44P was “no binding (tested: below 20%)” in each case.
